{"source": "patent US20230357447A1", "about": "(JANUX THERAPEUTICS, published 2023)"}
{"biological_target": "T1, Anti-CD28 scFv (VH-linker 1-VL) (biotinylated (site not stated))", "T1 construct": "biotinylated and captured on neutravidin coated plates in the phage ELISA", "T1 sequence (scFv, as listed by the source)": "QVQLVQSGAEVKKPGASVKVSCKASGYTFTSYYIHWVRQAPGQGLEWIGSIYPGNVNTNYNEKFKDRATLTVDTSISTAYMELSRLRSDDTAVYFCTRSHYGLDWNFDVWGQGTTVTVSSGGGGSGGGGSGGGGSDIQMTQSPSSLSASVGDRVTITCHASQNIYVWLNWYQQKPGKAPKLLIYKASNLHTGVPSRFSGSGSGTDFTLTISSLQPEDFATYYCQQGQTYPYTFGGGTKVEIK", "assay": "phage binding ELISA on captured anti-CD28 scFv, wells pre-incubated with soluble CD28 (competitor);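 further: crude clonal phage supernatants added without washing, bound phage detected by HRP-conjugated anti-M13 antibody, control wells held blocking buffer alone instead of CD28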"}
{"binder": "MFWCPSTMWNRCFD", "note": "[Phage-420]", "CD28 scFv signal in presence of CD28": 0.138}
{"binder": "MNWCPIHMWNQCFA", "note": "[Phage-407]", "CD28 scFv signal in presence of CD28": 0.133}
{"binder": "IYWCPTAMWNRCSA", "note": "[Phage-417]", "CD28 scFv signal in presence of CD28": 0.073}
{"binder": "MYWCPKYMWSECFA", "note": "[Phage-418]", "CD28 scFv signal in presence of CD28": 0.099}
{"binder": "QHWCPRDMWNDCYA", "note": "[Phage-412]", "CD28 scFv signal in presence of CD28": 0.149}
{"binder": "MDWCPSDMWSNCFN", "note": "[Phage-413]", "CD28 scFv signal in presence of CD28": 0.121}
{"binder": "MFWCPKDMWAECFA", "note": "[Phage-408]", "CD28 scFv signal in presence of CD28": 0.113}
{"binder": "MDWCPMYMWHKCFH", "note": "[Phage-415]", "CD28 scFv signal in presence of CD28": 0.168}
{"binder": "IDWCPRYMWHECFF", "note": "[Phage-410]", "CD28 scFv signal in presence of CD28": 0.164}
{"binder": "MNWCPIDMWTECFN", "note": "[Phage-406]", "CD28 scFv signal in presence of CD28": 0.175}
{"binder": "MDWCPMSMWAFCFD", "note": "[Phage-405]", "CD28 scFv signal in presence of CD28": 0.16}
{"binder": "MSWCPWDMWNECFA", "note": "[Phage-403]", "CD28 scFv signal in presence of CD28": 0.108}
{"binder": "MDWCPRDMWTSCFN", "note": "[Phage-404]", "CD28 scFv signal in presence of CD28": 0.179}
{"binder": "MSWCPRFMWHECFN", "note": "[Phage-411]", "CD28 scFv signal in presence of CD28": 0.246}
{"binder": "LHWCPITMWTYCYY", "note": "[Phage-409]", "CD28 scFv signal in presence of CD28": 0.516}
{"binder": "LYWCPRDMWAYCYS", "note": "[Phage-414]", "CD28 scFv signal in presence of CD28": 0.157}
{"binder": "MDWCPRHMWHECFH", "note": "[Phage-402]", "CD28 scFv signal in presence of CD28": 0.171}
{"binder": "MYWCPINMWDYCYA", "note": "[Phage-422]", "CD28 scFv signal in presence of CD28": 0.088}
{"biological_target": "T1, Anti-CD28 scFv (VH-linker 1-VL)", "assay": "phage binding ELISA on captured biotinylated anti-CD28 scFv;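 further: crude clonal phage supernatants applied to the wells, bound phage read out with an HRP-conjugated anti-M13 antibody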", "method": "(§1) Clonal phage were harvested as crude supernatants and screened via standard enzyme linked immunosorbent assays (ELISAs). […] Prior to the addition of clonal phage, wells were incubated with blocking buffer and CD28 soluble protein or blocking buffer alone. Without washing or aspirating, clonal phage supernatants were then added to the wells and incubated for a short time. Wells were then washed followed by detection of bound phage using a horse radish peroxidase conjugated anti-M13 antibody."}
{"binder": "MFWCPSTMWNRCFD", "note": "[Phage-420]", "CD28 scFv signal": 0.464}
{"binder": "MNWCPIHMWNQCFA", "note": "[Phage-407]", "CD28 scFv signal": 1.37}
{"binder": "IYWCPTAMWNRCSA", "note": "[Phage-417]", "CD28 scFv signal": 0.817}
{"binder": "MYWCPKYMWSECFA", "note": "[Phage-418]", "CD28 scFv signal": 0.741}
{"binder": "QHWCPRDMWNDCYA", "note": "[Phage-412]", "CD28 scFv signal": 1.08}
{"binder": "MDWCPSDMWSNCFN", "note": "[Phage-413]", "CD28 scFv signal": 1.07}
{"binder": "MFWCPKDMWAECFA", "note": "[Phage-408]", "CD28 scFv signal": 1.26}
{"binder": "MDWCPMYMWHKCFH", "note": "[Phage-415]", "CD28 scFv signal": 0.987}
{"binder": "IDWCPRYMWHECFF", "note": "[Phage-410]", "CD28 scFv signal": 1.18}
{"binder": "MNWCPIDMWTECFN", "note": "[Phage-406]", "CD28 scFv signal": 1.4}
{"binder": "MDWCPMSMWAFCFD", "note": "[Phage-405]", "CD28 scFv signal": 1.41}
{"binder": "MSWCPWDMWNECFA", "note": "[Phage-403]", "CD28 scFv signal": 1.52}
{"binder": "MDWCPRDMWTSCFN", "note": "[Phage-404]", "CD28 scFv signal": 1.41}
{"binder": "MSWCPRFMWHECFN", "note": "[Phage-411]", "CD28 scFv signal": 1.11}
{"binder": "LHWCPITMWTYCYY", "note": "[Phage-409]", "CD28 scFv signal": 1.21}
{"binder": "LYWCPRDMWAYCYS", "note": "[Phage-414]", "CD28 scFv signal": 1.02}
{"binder": "MDWCPRHMWHECFH", "note": "[Phage-402]", "CD28 scFv signal": 1.81}
{"binder": "MYWCPINMWDYCYA", "note": "[Phage-422]", "CD28 scFv signal": 0.109}
{"biological_target": "T2, anti-CD28 scFv (VH-linker 1-VL) (biotinylated (site not stated))", "T2 construct": "Captured as biotinylated scFv on neutravidin coated plates in the phage ELISA", "T2 sequence (scFv, as listed by the source)": "as above", "assay": "phage ELISA; scFv wells pre-incubated with soluble CD28 (competitor);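 further: crude clonal phage supernatants added to wells pretreated with soluble CD28 in blocking buffer, bound phage read via HRP-linked anti-M13 antibody, reference wells got blocking buffer only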"}
{"binder": "MTWCPTSFWNRCLD (on phage (pIII fusion))", "note": "[Phage-233 clonal phage peptide]", "CD28 scFv signal in presence of CD28": 0.405}
{"binder": "VPWCLIISGLDCLN (on phage (pIII fusion))", "note": "[Phage-231 clonal phage peptide]", "CD28 scFv signal in presence of CD28": 0.09}
{"binder": "NYWCPSSMWNRCLH (on phage (pIII fusion))", "note": "[Phage-219 clonal phage peptide]", "CD28 scFv signal in presence of CD28": 0.088}
{"binder": "MDWCARFVGYGCLD (on phage (pIII fusion))", "note": "[Phage-232 clonal phage peptide]", "CD28 scFv signal in presence of CD28": 0.074}
{"binder": "TTWCPTSMWLHCFD (on phage (pIII fusion))", "note": "[Phage-221 clonal phage peptide]", "CD28 scFv signal in presence of CD28": 0.072}
{"binder": "FDFCPTTMWTYCQH (on phage (pIII fusion))", "note": "[Phage-220 clonal phage peptide]", "CD28 scFv signal in presence of CD28": 0.081}
{"binder": "VPWCQIISGLECLT (on phage (pIII fusion))", "note": "[Phage-229 clonal phage peptide]", "CD28 scFv signal in presence of CD28": 0.077}
{"binder": "APWCQIISGLECLT (on phage (pIII fusion))", "note": "[Phage-230 clonal phage peptide]", "CD28 scFv signal in presence of CD28": 0.078}
{"binder": "MDWCPRDRWIDCFN (on phage (pIII fusion))", "note": "[Phage-226 clonal phage peptide]", "CD28 scFv signal in presence of CD28": 0.131}
{"binder": "MDWCPRDRWSDCFN (on phage (pIII fusion))", "note": "[Phage-227 clonal phage peptide]", "CD28 scFv signal in presence of CD28": 0.074}
{"binder": "MDWCPRDQWHNCFN (on phage (pIII fusion))", "note": "[Phage-222 clonal phage peptide]", "CD28 scFv signal in presence of CD28": 0.078}
{"binder": "ITWCHVISGLECWN (on phage (pIII fusion))", "note": "[Phage-228 clonal phage peptide]", "CD28 scFv signal in presence of CD28": 0.1}
{"binder": "TFGCPTTMWNRCFA (on phage (pIII fusion))", "note": "[Phage-218 clonal phage peptide]", "CD28 scFv signal in presence of CD28": 0.068}
{"binder": "MDWCPRDRWVDCFF (on phage (pIII fusion))", "note": "[Phage-223 clonal phage peptide]", "CD28 scFv signal in presence of CD28": 0.14}
{"binder": "MDWCPRDRWADCFF (on phage (pIII fusion))", "note": "[Phage-225 clonal phage peptide]", "CD28 scFv signal in presence of CD28": 0.089}
{"binder": "MDWCPWDMWDKCFN (on phage (pIII fusion))", "note": "[Phage-217 clonal phage peptide]", "CD28 scFv signal in presence of CD28": 0.108}
{"binder": "MDWCPRHLWFECFN (on phage (pIII fusion))", "note": "[Phage-293 clonal phage peptide]", "CD28 scFv signal in presence of CD28": 0.171}
{"binder": "MDWCPRHLWNECFA (on phage (pIII fusion))", "note": "[Phage-306 clonal phage peptide]", "CD28 scFv signal in presence of CD28": 0.17}
{"binder": "MDWCPRHLWFECFF (on phage (pIII fusion))", "note": "[Phage-300 clonal phage peptide]", "CD28 scFv signal in presence of CD28": 0.479}
{"binder": "MDWCPRHLWYECFN (on phage (pIII fusion))", "note": "[Phage-243 clonal phage peptide]", "CD28 scFv signal in presence of CD28": 0.167}
{"binder": "MDWCPRHLWNECFN (on phage (pIII fusion))", "note": "[Phage-283 clonal phage peptide]", "CD28 scFv signal in presence of CD28": 0.393}
{"binder": "MDWCPRALWFECFF (on phage (pIII fusion))", "note": "[Phage-234 clonal phage peptide]", "CD28 scFv signal in presence of CD28": 0.331}
{"biological_target": "T2, anti-CD28 scFv (VH-linker 1-VL)", "assay": "phage ELISA; biotinylated scFv on neutravidin plate; anti-M13-HRP;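 further: crude clonal phage supernatant added to wells pre-incubated with soluble CD28 protein or only blocking buffer, then washed, bound phage read out with an HRP-linked anti-M13 antibody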", "method": "as §1"}
{"binder": "MTWCPTSFWNRCLD (on phage (pIII fusion))", "note": "[Phage-233 clonal phage peptide]", "CD28 scFv signal": 0.392}
{"binder": "VPWCLIISGLDCLN (on phage (pIII fusion))", "note": "[Phage-231 clonal phage peptide]", "CD28 scFv signal": 0.107}
{"binder": "NYWCPSSMWNRCLH (on phage (pIII fusion))", "note": "[Phage-219 clonal phage peptide]", "CD28 scFv signal": 0.158}
{"binder": "MDWCARFVGYGCLD (on phage (pIII fusion))", "note": "[Phage-232 clonal phage peptide]", "CD28 scFv signal": 0.065}
{"binder": "MDWCPKDRWNDCYF (on phage (pIII fusion))", "note": "[Phage-224 clonal phage peptide]", "CD28 scFv signal": 1.09}
{"binder": "TTWCPTSMWLHCFD (on phage (pIII fusion))", "note": "[Phage-221 clonal phage peptide]", "CD28 scFv signal": 0.074}
{"binder": "FDFCPTTMWTYCQH (on phage (pIII fusion))", "note": "[Phage-220 clonal phage peptide]", "CD28 scFv signal": 0.086}
{"binder": "VPWCQIISGLECLT (on phage (pIII fusion))", "note": "[Phage-229 clonal phage peptide]", "CD28 scFv signal": 0.174}
{"binder": "APWCQIISGLECLT (on phage (pIII fusion))", "note": "[Phage-230 clonal phage peptide]", "CD28 scFv signal": 0.169}
{"binder": "MDWCPRDRWIDCFN (on phage (pIII fusion))", "note": "[Phage-226 clonal phage peptide]", "CD28 scFv signal": 0.339}
{"binder": "MDWCPRDRWSDCFN (on phage (pIII fusion))", "note": "[Phage-227 clonal phage peptide]", "CD28 scFv signal": 0.102}
{"binder": "MDWCPRDQWHNCFN (on phage (pIII fusion))", "note": "[Phage-222 clonal phage peptide]", "CD28 scFv signal": 0.2}
{"binder": "ITWCHVISGLECWN (on phage (pIII fusion))", "note": "[Phage-228 clonal phage peptide]", "CD28 scFv signal": 0.193}
{"binder": "TFGCPTTMWNRCFA (on phage (pIII fusion))", "note": "[Phage-218 clonal phage peptide]", "CD28 scFv signal": 0.181}
{"binder": "MDWCPRDRWVDCFF (on phage (pIII fusion))", "note": "[Phage-223 clonal phage peptide]", "CD28 scFv signal": 1.58}
{"binder": "MDWCPRDRWADCFF (on phage (pIII fusion))", "note": "[Phage-225 clonal phage peptide]", "CD28 scFv signal": 0.392}
{"binder": "MDWCPWDMWDKCFN (on phage (pIII fusion))", "note": "[Phage-217 clonal phage peptide]", "CD28 scFv signal": 0.586}
{"binder": "MDWCPRHLWFECFN (on phage (pIII fusion))", "note": "[Phage-293 clonal phage peptide]", "CD28 scFv signal": 2.49}
{"binder": "MDWCPRHLWNECFA (on phage (pIII fusion))", "note": "[Phage-306 clonal phage peptide]", "CD28 scFv signal": 2.39}
{"binder": "MDWCPRHLWFECFF (on phage (pIII fusion))", "note": "[Phage-300 clonal phage peptide]", "CD28 scFv signal": 2.45}
{"binder": "MDWCPRHLWYECFN (on phage (pIII fusion))", "note": "[Phage-243 clonal phage peptide]", "CD28 scFv signal": 2.41}
{"binder": "MDWCPRHLWNECFN (on phage (pIII fusion))", "note": "[Phage-283 clonal phage peptide]", "CD28 scFv signal": 2.65}
{"binder": "MDWCPRALWFECFF (on phage (pIII fusion))", "note": "[Phage-234 clonal phage peptide]", "CD28 scFv signal": 2.67}
